Ends that are not written are not given here.
Tests used:
[1] = cited from earlier work
[2] = 10 °C; cited from earlier work
[3] = tested on: actin; details: literature statement, no reference printed at this sentence; cited from earlier work
[4] = tested on: cofilin; details: cited from earlier work
[5] = target: T1, αTM1b_(1-19)Zip (1bNTD), unlabeled synthetic peptide (rat | yeast); experiment: circular dichroism titration
T1 chain: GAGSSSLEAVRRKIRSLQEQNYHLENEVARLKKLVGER

In the case of “9aCTD: residues 251-284 of rat striated α-tropomyosin encoded by exon 8 and exon 9a with GCG at the N-terminus (GCGKSIDDLEDELYAQKLKYKAISEELDHALNDMTSI; not fully specified; UniProt P04692 251-284, looked up, fragment)”, the “TM of unfolding of 9aCTD” value [1] is given as ~ 25 °C and the “helical content of 9aCTD” value [2] is given as “greater than 75%”.

In the case of “Cofilin: actin filament binding and severing protein”, the “affinity of cofilin for the actin filament” value [3] is listed as “high affinity”.

For Tropomyosin, the “inhibition of cofilin binding and severing” value [4] is given as “competitive inhibitor”.

B1: α-TM9d_(252-284) (9dCTD), disulfide cross-linked (peptide)
chain: GCGGSIDDLEEKVAHAKEENLSMHQMLHQTLLELNNM
modifications: also: disulfide cross-link between two chains through Cys2 (dimer)
With B1 the Kd [5] was under 500 nM and the “stoichiometry N” value [5] was 0.94 ± 0.03 molar ratio.

— publication PMC4410877 (Biochemistry, 2009)
